Assay results published in patent US20260234700, “MUTANT CAS12J ENDONUCLEASES” (University of Copenhagen, published 2026).
Residue numbers refer to the chain shown, from its start.

Experiments:
Assay in all cases: cleavage_in_vitro; PAM TTC; 5 mM Mg2+
Conditions in all cases: tags: C-terminal His6; label: 5'-FAM on NT-strand, 3'-FAM on T-strand
[1] = biological target: T1, CasΦ3 Q123A (Biggiephage, Q123A)
T1 chain: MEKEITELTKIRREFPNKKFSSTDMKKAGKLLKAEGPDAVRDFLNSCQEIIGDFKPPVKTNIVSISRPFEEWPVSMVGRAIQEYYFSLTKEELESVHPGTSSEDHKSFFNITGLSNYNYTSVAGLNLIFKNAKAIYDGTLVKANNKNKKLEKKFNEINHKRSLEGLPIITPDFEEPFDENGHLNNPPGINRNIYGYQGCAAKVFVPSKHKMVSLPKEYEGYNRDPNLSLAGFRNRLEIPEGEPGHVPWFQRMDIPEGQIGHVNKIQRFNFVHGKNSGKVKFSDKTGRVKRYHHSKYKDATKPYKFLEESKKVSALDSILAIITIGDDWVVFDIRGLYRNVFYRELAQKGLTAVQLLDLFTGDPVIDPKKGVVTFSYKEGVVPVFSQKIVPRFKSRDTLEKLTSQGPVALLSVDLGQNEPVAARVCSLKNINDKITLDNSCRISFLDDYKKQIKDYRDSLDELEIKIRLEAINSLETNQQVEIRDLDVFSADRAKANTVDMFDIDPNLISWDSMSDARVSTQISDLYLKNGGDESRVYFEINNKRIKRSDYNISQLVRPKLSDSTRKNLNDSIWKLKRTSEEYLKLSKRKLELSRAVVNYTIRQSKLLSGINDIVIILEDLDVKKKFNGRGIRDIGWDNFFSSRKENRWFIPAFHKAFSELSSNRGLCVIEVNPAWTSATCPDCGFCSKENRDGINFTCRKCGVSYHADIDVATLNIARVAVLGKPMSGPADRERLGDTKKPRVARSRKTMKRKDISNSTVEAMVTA

[2] = biological target: T2, CasΦ3 K30A (Biggiephage, K30A)
T2 chain: T1 chain with K30A, A123Q

[3] = biological target: T3, CasΦ3 Q197A (Biggiephage, Q197A)
T3 chain: T1 chain with A123Q, Q197A

B1: CasΦ3 crRNA ; FAM-labelled target dsDNA (5F-NT-TTC-30/3F-T-AAG-30) (ssRNA ; dsDNA)
RNA: UAUUGAUUGCCCAGUACGCUGGGACAGCUGGUAAUGGGAUACCUU
DNA 1: GTAATTCAGCTGGTAATGGGATACCTTGTGCTACAGC
DNA 2: GCTGTAGCACAAGGTATCCCATTACCAGCTGAATTAC
Binder B1 has an activity [1] of about 90 % reduction vs WT, an activity [2] of about 55 % reduction vs WT and an activity [3] of about 90 % reduction vs WT.
